# T1: CNBr2 fragment of human Dkk-1 (human, UniProt O94907 32-122; O94907 127-178)
# T1 construct: Two peptides held together by disulfide bonds; represents disulfide domain 1
# T1 sequence 1: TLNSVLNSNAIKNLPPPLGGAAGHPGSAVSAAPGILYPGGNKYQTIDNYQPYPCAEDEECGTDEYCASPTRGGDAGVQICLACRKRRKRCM
# T1 sequence 2: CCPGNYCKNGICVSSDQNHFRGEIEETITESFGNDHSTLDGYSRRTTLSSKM
# T2: murine Dkk-1 (mouse, UniProt O54908 32-272)
# T2 construct: also called mouse Dkk-1; muDkk-1
# T2 sequence: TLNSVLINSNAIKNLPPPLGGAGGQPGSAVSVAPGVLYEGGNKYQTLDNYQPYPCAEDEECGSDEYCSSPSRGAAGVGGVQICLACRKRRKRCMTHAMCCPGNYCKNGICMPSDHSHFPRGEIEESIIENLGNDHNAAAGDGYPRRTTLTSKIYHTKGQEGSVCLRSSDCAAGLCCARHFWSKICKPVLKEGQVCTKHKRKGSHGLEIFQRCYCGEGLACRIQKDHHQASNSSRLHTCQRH
# T3: human Dkk-1 (human, UniProt O94907 32-266, carbohydrate moieties attached to Asn256)
# T3 construct: Recombinant; also called hDkk-1; human dickkopf-1
# T3 sequence: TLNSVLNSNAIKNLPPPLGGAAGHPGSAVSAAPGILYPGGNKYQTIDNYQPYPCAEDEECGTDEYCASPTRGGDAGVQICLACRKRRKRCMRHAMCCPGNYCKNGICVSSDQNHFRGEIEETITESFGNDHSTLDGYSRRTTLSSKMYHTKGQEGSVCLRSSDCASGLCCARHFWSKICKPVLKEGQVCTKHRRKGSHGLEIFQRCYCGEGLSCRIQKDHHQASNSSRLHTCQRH
# B1: 11H10 monoclonal antibody (rat) (antibody, IgG1, V domains shown)
# VH: EVQLVESGGGLVQPANSLKLSCAASGFTFSDYAMAWVRQSPKKGLEWVATIIYDGSSTYYRDSVKGRFTISRDNAKSTLYLQMDSLRSEDTATYYCATGLGIATDYFDYWGQGVLVTVSS
# VL: DIRMTQSPASLSASLGETVNIECLASEDIYSDLAWYQQKPGKSPQLLIYNANSLQNGVPSRFSGSGSGTQYSLKINSLQSEDVATYFCQQYNNYPPTFGGGTKLELKR
# notes: Rat hybridoma antibody of the IgG1 isotype; also called rat 11H10; L1H1
# How the values were obtained:
# [1] = target: T1, CNBr2 fragment of human Dkk-1; experiment: BiaCore
# Procedure: To characterize this conformational epitope, a strategy was applied that involved fragmenting human Dkk-1 with cyanogen bromide (CNBr) and several different proteases, then testing the resulting fragments to see whether they could still bind to the 11H10 antibody. The resulting data permitted the location of the epitope to be determined. In brief, the peptide digests were incubated with or without the antibody, passed through a 10 K cut-off membrane to trap any peptides that had become bound to the antibody (˜150,000 Da), then subjected to HPLC peptide mapping. […] The individual HPLC peaks were collected and the peptides identified and mapped by N-terminal sequencing. To determine if the peptides could bind 11H10, they were subjected to real time biospecific interaction assays with a BiaCore work station, using Protein A-trapped anti-Dkk-1 antibody as a biosensor for binding.
# CNBr cleavage of hDkk-1 generated two large fragments, CNBr1 and CNBr2. These represented, respectively, disulfide domain 2 and disulfide domain 1. […] CNBr2 similarly consisted of two peptides (amino acids 32-122 of SEQ ID NO:2 and amino acids 127-178 of SEQ ID NO:2), also held together by disulfide bonds. […] Thus, it was concluded that 11H10 binds to an epitope located in disulfide domain 2 of Dkk-1.
# rat Dkk-1 [2] = target: rat Dkk-1 (rat); experiment: KinExA 3000 equilibrium binding in solution, Dkk-1-coated beads
# Description: (§1) It was apparent from the BiaCore results that 11H10 had the higher affinity for Dkk-1, and that its affinity for target exceeded the sensitivity limits of the BiaCore assay. Accordingly, the affinity of binding of 11H10 to Dkk-1 was further assessed by an equilibrium binding analysis using the more sensitive KinExA® 3000 (Sapidyne Instruments Inc., Boise, Id.). For these measurements, Reacti-Gel 6× beads (Pierce, Rockford, Ill.) were pre-coated with either mouse, rat or human Dkk-1 and blocked with BSA. One hundred pM, 300 pM, or 1000 pM of the 11H10 antibody was mixed with various concentrations of human, mouse or rat Dkk-1, ranging in concentration from 1 pM to 50 nM, and equilibrated at room temperature for 8 hours. The mixtures were then passed over the Dkk-1-coated beads. The amount of bead-bound anti-Dkk-1 antibody was quantified using goat anti-rat-IgG antibody labeled with a fluorescent tag (Cy5; Jackson Immuno Research, West Grove, Pa.). The amount of fluorescent signal measured was proportional to the concentration of free anti-Dkk-1 antibody in each reaction mixture at equilibrium. The dissociation equilibrium constant (Kd) was obtained from nonlinear regression of the competition curves using a dual-curve one-site homogeneous binding model using the KinExA software.
# murine Dkk-1 [3] = target: T2, murine Dkk-1; experiment: as above
# Description: as §1
# human Dkk-1 [4] = target: T3, human Dkk-1; experiment: as above
# Description: as §1
# murine Dkk-1 [5] = target: T2, murine Dkk-1; experiment: cell-based or functional assay
# human Dkk-1 [6] = target: T3, human Dkk-1; experiment: cell-based or functional assay
# rat Dkk-1 [7] = target: rat Dkk-1 (rat); experiment: cell-based or functional assay
# murine Dkk-1 [8] = target: T2, murine Dkk-1; experiment: cell-based or functional assay; remark: listed apart in the source
# human Dkk-1 [9] = target: T3, human Dkk-1; experiment: cell-based or functional assay; remark: listed apart in the source
# rat Dkk-1 [10] = target: rat Dkk-1 (rat); experiment: SPR, BiaCore 2000, Dkk-1 immobilized on CM5 chip, antibody injected
# Procedure: (§2) Kinetic analyses were performed to study the binding of the 11H10 and 1F11 antibodies to Dkk-1 using BiaCore 2000 (BIACORE, Uppsala, Sweden). Rat Dkk-1 (260 μg/ml), murine Dkk-1 (690 μg/ml) and human Dkk-1(900 μg/ml) were immobilized on a CM5 chip surface, and various concentrations (0.78 nM to about 100 nM) of the antibodies were injected over the immobilized Dkk-1 surfaces. The binding sensorgrams were analyzed using BIAevaluation 3.2.
# murine Dkk-1 [11] = target: T2, murine Dkk-1; experiment: as above
# Procedure: as §2
# human Dkk-1 [12] = target: T3, human Dkk-1; experiment: as above
# Procedure: as §2
binder,measurement,setting,value
B1,binding result,[1],no binding
same,Kd,rat Dkk-1 [2],0.54 nM
same,Kd,murine Dkk-1 [3],0.165 nM
same,Kd,human Dkk-1 [4],0.13 nM
same,"EC50 (nM), restoring ALP activity in ST2 cells given Wnt3a and Dkk-1",murine Dkk-1 [5],6.1 nM
same,"EC50 (nM), restoring ALP activity in ST2 cells given Wnt3a and Dkk-1",human Dkk-1 [6],3.5 nM
same,"EC50 (nM), TCF-lef luciferase assay",rat Dkk-1 [7],5 nM
same,"EC50 (nM), TCF-lef luciferase assay",murine Dkk-1 [8],11.5 nM
same,"EC50 (nM), TCF-lef luciferase assay",human Dkk-1 [9],4 nM
same,Kd,rat Dkk-1 [10],0.29 nM
same,koff,rat Dkk-1 [10],1.54e-05 s⁻¹
same,kon,rat Dkk-1 [10],54000 M⁻¹ s⁻¹
same,Kd,murine Dkk-1 [11],< 0.1 nM
same,koff,murine Dkk-1 [11],< 5e-05 s⁻¹
same,kon,murine Dkk-1 [11],54000 M⁻¹ s⁻¹
same,Kd,human Dkk-1 [12],< 0.1 nM
same,koff,human Dkk-1 [12],< 5e-05 s⁻¹
same,kon,human Dkk-1 [12],52000 M⁻¹ s⁻¹

# Reference: patent publication US20060127393A1 (Amgen, published 2006)
